Assay results taken from patent publication US20230277632A1, “MODIFIED PlySs2 LYSINS AND ANTIBIOTIC COMBINATIONS FOR USE AGAINST GRAM-POSITIVE BACTERIA” (ContraFect Corporation, priority 2020, published 2023).

Columns and labels:
[1] = system: MSSA strains; experiment: Checkerboard assay: pp296 or CF-301 with oxacillin; type: cell-based, Staphylococcus aureus; conditions: for FIC: pp296 + oxacillin; for ΣFICmin: with oxacillin
From the text: In some embodiments, the present modified lysin polypeptides reduce the minimum inhibitory concentration (MIC) of an antibiotic. Any known method to assess MIC may be used. In some embodiments, a checkerboard assay is used to determine the effect of a lysin on antibiotic concentration. The checkerboard assay is based on a modification of the CLSI method for MIC determination by broth microdilution (See Clinical and Laboratory Standards Institute (CLSI), CLSI. 2015. Methods for Dilution Antimicrobial Susceptibility Tests for Bacteria That Grow Aerobically; Approved Standard-10th Edition. Clinical and Laboratory Standards Institute, Wayne, Pa., which is herein incorporated by reference in its entirety and Ceri et al. 1999. J. Clin. Microbiol. 37: 1771-1776, which is also herein incorporated by reference in its entirety).
Checkerboards are constructed by first preparing columns of e.g., a 96-well polypropylene microtiter plate, wherein each well has the same amount of antibiotic diluted 2-fold along the horizontal axis. […] The lysin and antibiotic dilutions are then combined, so that each column has a constant amount of antibiotic and doubling dilutions of lysin, while each row has a constant amount of lysin and doubling dilutions of antibiotic. Each well thus has a unique combination of lysin and antibiotic. Bacteria are added to the drug combinations at a given concentration. […] Summation fractional inhibitory concentrations (ΣFICs) are calculated for each drug and the minimum ΣFIC value (ΣFICmin) is used to determine the effect of the lysin/antibiotic combination.
The ability of CF-301 or a modified lysin polypeptide pp296 to synergize with oxacillin was assessed using a checkerboard analysis. For the checkerboard assay, a total of 50 μl of Mueller-Hinton broth is distributed into each well of microdilution plates. Then, a first antibiotic of a combination is serially diluted along the ordinate, while a second drug is diluted along the abscissa. An inoculum equal to a 0.5 McFarland turbidity standard is prepared from each bacterial isolate in Mueller-Hinton broth. Each microtiter well is then inoculated with 100 μl of a bacterial inoculum of 5×10^5 CFU/ml, and the plates are incubated at 37° C. for 18 h under aerobic conditions. The resulting checkerboard contains each combination of two antibiotics, with wells that contain the highest concentration of each antibiotic at opposite corners. […] To quantify the interactions between the antibiotics being tested, the FIC index (the combination of antibiotics that produced the greatest change from the individual antibiotic's MIC) value is calculated for each strain and antibiotic combination as follows:
(A/MICA)+(B/MICB)=FICA+FICB=FIC index,
where A and B are the MIC of each agent in combination in a single well, and MICA and MICB are the MIC of each drug when used individually. The combination is considered strongly synergistic when the FIC index is ≤0.5 and synergistic when the FIC index is >0.5-<1.

[2] = system: S. aureus; experiment: pp296 dose fractionation study, neutropenic murine thigh infection model; type: in vivo
Method: Each of the pp296 TDDs was fractionated into three regimens, i.e., one-third of the entire dose was administered via IV three times (q8h); one-half of the entire does was administered via IV two times (q12h), or the entire dose was administered via IV once daily over a 24-hour period, for a total of three groups per each TDD.
Untreated control mice (n=3/group) were sacrificed just prior to antibiotic administration, as well as 24 hours later. Animals sacrificed prior to antibiotic administration served as 0-hour control animals, representing initial bacterial burden. The 24-hour control animals received sterile normal saline in the same volume and schedule as the most frequent active drug regimen. […] After the 24-hour treatment period, all animals were euthanized and thighs were cultured quantitatively as described above. The change in bacterial density was calculated for each of the dosing regimen. Comparisons were made between the different regimens of the same total daily dose on bacterial burdens at 24 hours using one-way Analysis of Variance (ANOVA) test followed by Tukey's test where the P value was 0.05.

B1: pp296: modified PlySs2 lysin, SEQ ID NO: 6: L92W, V104S, V128T, Y137S, Y164K, N184D, S198Q (protein)
chain: MTTVNEALNNVRAQVGSGVSVGNGECYALASWYERMISPDATVGLGAGVGWVSGAIGDTISAKNIGSSYNWQANGWTVSTSGPFKAGQIVTWGATPGNPYGHVSIVEAVDGDRLTILEQNYGGKRYPTRNYYSAASSRQQVVHYITPPGTVAQSAPNLAGSRSKRETGTMTVTVDALNVRRAPDTSGEIVAVYKRGEQFDYDTAIIDVNGYAWVSYIGGSGKRNYVATGATKDGKRFGNAWGTFK
In the case of B1, the “Single agent MICs” value ([1]; MSSA ATCC 29213) is reported as 1 µg/mL, the “Single agent MICs” value ([1]; MSSA JMI-6625) is reported as 1 µg/mL and the “Single agent MICs” value ([1]; MSSA JMI-6885) is reported as 1 µg/mL. For the same molecule, the “Single agent MICs” value ([1]; MSSA JMI-6886) was 1 µg/mL, the “Single agent MICs” value ([1]; MSSA JMI-7054) was 1 µg/mL and the “Single agent MICs” value ([1]; MSSA JMI-7160) was 1 µg/mL. For the same molecule, the “Single agent MICs” value ([1]; MSSA JMI-38739) was 1 µg/mL, the “Single agent MICs” value ([1]; MSSA JMI-38986) was 1 µg/mL and the “Single agent MICs” value ([1]; MSSA JMI-40671) was 1 µg/mL. For the same molecule, the “Single agent MICs” value ([1]; MSSA JMI-46142) was 1 µg/mL, the FIC ([1]; MSSA ATCC 29213) was 0.25 and the FIC ([1]; MSSA JMI-6625) was 0.0625. It also gave an FIC ([1]; MSSA JMI-6885) of 0.25, an FIC ([1]; MSSA JMI-6886) of 0.25 and an FIC ([1]; MSSA JMI-7054) of 0.25. For the same molecule, the FIC ([1]; MSSA JMI-7160) was 0.25, the FIC ([1]; MSSA JMI-38739) was 0.25 and the FIC ([1]; MSSA JMI-38986) was 0.125. The FIC ([1]; MSSA JMI-40671) was 0.25, the FIC ([1]; MSSA JMI-46142) was 0.25 and the ΣFICmin ([1]; MSSA ATCC 29213) was 0.5. It also gave a ΣFICmin ([1]; MSSA JMI-6625) of 0.3125, a ΣFICmin ([1]; MSSA JMI-6885) of 0.375 and a ΣFICmin ([1]; MSSA JMI-6886) of 0.5. The ΣFICmin ([1]; MSSA JMI-7054) was 0.5, the ΣFICmin ([1]; MSSA JMI-7160) was 0.5 and the ΣFICmin ([1]; MSSA JMI-38739) was 0.5. For the same molecule, the ΣFICmin ([1]; MSSA JMI-38986) was 0.375, the ΣFICmin ([1]; MSSA JMI-40671) was 0.375 and the ΣFICmin ([1]; MSSA JMI-46142) was 0.5. For the same molecule, the “efficacy of dose-fractionation (q12h v. q8h) compared with q24h” value ([2]; pp296 5 or 50 mg/kg/day IV with vancomycin or daptomycin) was “does not appear to provide enhanced efficacy” and the “driver of efficacy (PK/PD index)” value ([2]; pp296 with vancomycin or daptomycin) was “AUC related”.
